The text below walks through data of the supplement of paper PMC10724198.

Where “and” joins values, the source holds several entries; their conditions need not be identical. Equal entries are not always repeated. ± gives the standard deviation of the averaged measurements.

For data set [1], the system named is Saccharomyces cerevisiae. The experiment in a line: protein stability index of tFT-peptide fusion in wild type (PSI (0-1 scale)); higher = more stable (slower turnover). The settings on record: genetic background: wild type.
For data set [2], the system named is Saccharomyces cerevisiae. The experiment in a line: protein stability index of tFT-peptide fusion in deletion strain of DOA10 (PSI (0-1 scale)); higher = more stable (slower turnover). Here is the method:
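MPS profiling in S. cerevisiae of two library types built from selected 12-aa C-degron peptides (IN1, IN2, LN1, LN3, VN2, R1-R5, W1-W3, Atg1 and Rpa12 C-termini): saturation mutagenesis libraries and C-terminal +1 capping libraries (13 aa). Each peptide is fused to the C-terminus of a sfGFP-mCherry timer, after a GGGS linker. Cells are FACS-sorted into 8 mCherry/sfGFP bins and sequenced. PSI runs from 0 (unstable) to 1 (stable), measured once in wild type and in the das1Δ or doa10Δ background.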

For data set [3], the system named is Saccharomyces cerevisiae. The experiment in a line: protein stability index of tFT-peptide fusion (C-terminal peptide) (PSI (0-1 scale)); higher = more stable (slower turnover). The note with it: genetic background: wild type; temperature: 30 C.
The subject of data set [4] is Saccharomyces cerevisiae. The data set is described as above. On the procedure: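 MPS profiling in S. cerevisiae of the tFT-X12 degron library: putative degron peptides plus stable controls, 12 aa, fused to the C-terminus of a sfGFP-mCherry timer. Cells are FACS-sorted into 8 mCherry/sfGFP bins and deep-sequenced. PSI runs from 0 (unstable) to 1 (stable). Backgrounds are wild type, das1Δ and doa10Δ at 30 °C, and wild type, das1Δ, cdc34-1 and cdc53-1 at 37 °C; 2-3 technical replicates each.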

Data set [5] relates to Saccharomyces cerevisiae. The experiment in a line: protein stability index of tFT-peptide fusion in deletion strain of DAS1 (PSI (0-1 scale)); higher = more stable (slower turnover).
Where [6] appears, read: genetic background: cdc34-1, temperature: 37 C.
Setting [7] is: genetic background: cdc53-1, temperature: 37 C.
[8] abbreviates: genetic background: das1 deletion, temperature: 30 C.
Setting [9] is: genetic background: das1 deletion, temperature: 37 C.
Where [10] appears, read: genetic background: doa10 deletion, temperature: 30 C.
The mark [11] stands for this setting: genetic background: wild type, temperature: 30 C.
Setting [12] is: genetic background: wild type, temperature: 37 C.
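Throughout, for protein stability index of tFT-peptide fusion (C-terminal peptide): PSI is a weighted mean of sequencing reads over stability bins, variants kept only with over 10 reads, mCherry proximal and sfGFP distal, peptide attached via GGGS linker.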
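Throughout, for protein stability index of tFT-peptide fusion in deletion strain of DAS1: PSI is a weighted mean of each variant's read distribution over the sorted stability bins, computed only for variants having over 10 reads in total.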
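Throughout, for protein stability index of tFT-peptide fusion in deletion strain of DOA10: PSI per variant is the weighted mean of its sequencing read distribution over the sorted stability bins, counting only variants with over 10 reads summed across bins.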
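Throughout, for protein stability index of tFT-peptide fusion in wild type: PSI derived as read-weighted mean over the 8 sorting bins, only variants exceeding 10 total reads kept, mCherry placed adjacent to the peptide and sfGFP distal.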

Turning to AIALPMCPLLLR, the protein stability index with Saccharomyces cerevisiae [1] was determined as 0.231; in the data set on Saccharomyces cerevisiae [2] it was 0.632.

AITHPMCPLLLR: the values for the protein stability index with Saccharomyces cerevisiae [1] and with Saccharomyces cerevisiae [2] were 0.455 and 0.676, respectively.

Regarding AITIPMCPLLLR, the protein stability index was 0.236 in the data set with Saccharomyces cerevisiae [1] and 0.639 with Saccharomyces cerevisiae [2].

For AITLFMCPLLLR, the protein stability index was 0.364 in the data set on Saccharomyces cerevisiae [1] and 0.644 in the data set on Saccharomyces cerevisiae [2].

In the case of AITLPFCPLLLR, the protein stability index was found to be 0.138 in the data set on Saccharomyces cerevisiae [1] and 0.667 with Saccharomyces cerevisiae [2].

For AITLPKCPLLLR, the values for the protein stability index in the data set on Saccharomyces cerevisiae [1] and with Saccharomyces cerevisiae [2] were 0.335 and 0.663, respectively.

For AITLPMCCLLLR, the protein stability index was 0.139 in the data set on Saccharomyces cerevisiae [1] and 0.602 in the data set with Saccharomyces cerevisiae [2].

AITLPMCPELLR: the protein stability index turned out to be 0.663 with Saccharomyces cerevisiae [1] and 0.674 in the data set with Saccharomyces cerevisiae [2].

Consider AITLPMCPLDLR, for which the protein stability index was found to be 0.676 in the data set with Saccharomyces cerevisiae [1] and 0.685 in the data set on Saccharomyces cerevisiae [2].

Turning to AITLPMCPLGLR, the figures for the protein stability index in the data set with Saccharomyces cerevisiae [1] and with Saccharomyces cerevisiae [2] were 0.644 and 0.683, respectively.

As for AITLPMCPLLAR, the results for the protein stability index in the data set on Saccharomyces cerevisiae [1] and with Saccharomyces cerevisiae [2] were 0.311 and 0.343, respectively.

As for AITLPMCPLLGR, the results for the protein stability index with Saccharomyces cerevisiae [1] and in the data set with Saccharomyces cerevisiae [2] were 0.603 and 0.607, respectively.

As to PDKRNHLIKLLN, the protein stability index in the data set on Saccharomyces cerevisiae [3] stood at 0.194 ± 0.031; with Saccharomyces cerevisiae [4] (setting [6]), 0.537 ± 0.022; in the data set on Saccharomyces cerevisiae [4] (setting [7]) it was 0.691 ± 0.03; in the data set on Saccharomyces cerevisiae [4] (setting [8]), 0.648 ± 0.029; in the data set on Saccharomyces cerevisiae [4] (setting [9]) it was 0.704 ± 0.0085; in the data set with Saccharomyces cerevisiae [4] (setting [10]), 0.0937 ± 0.024. In addition, the protein stability index was 0.119 ± 0.0097 with Saccharomyces cerevisiae [4] (setting [11]); 0.153 ± 0.031 in the data set with Saccharomyces cerevisiae [4] (setting [12]); 0.141 and 0.117 with Saccharomyces cerevisiae [1]; 0.661 and 0.625 in the data set on Saccharomyces cerevisiae [5].

For PYLAASFWRVVG, the protein stability index was determined as 0.151 in the data set on Saccharomyces cerevisiae [1] and 0.699 in the data set on Saccharomyces cerevisiae [5].

As to QVVYLSCVACIN, the protein stability index with Saccharomyces cerevisiae [1] stood at 0.0122; in the data set on Saccharomyces cerevisiae [5], 0.0307.

RCIQPLPVQFLN: the values for the protein stability index in the data set on Saccharomyces cerevisiae [1] and in the data set on Saccharomyces cerevisiae [5] were 0.0766 and 0.572, respectively.

As to RLICPLPVQFLN, the results for the protein stability index in the data set on Saccharomyces cerevisiae [1] and with Saccharomyces cerevisiae [5] were 0.0408 and 0.562, respectively.

Turning to RLIQNLPVQFLN, the protein stability index in the data set with Saccharomyces cerevisiae [1] was determined as 0.029; with Saccharomyces cerevisiae [5], 0.57.

RLIQPFPVQFLN: the protein stability index with Saccharomyces cerevisiae [1] was determined as 0.09; in the data set with Saccharomyces cerevisiae [5], 0.778.

With RLIQPLCVQFLN, the protein stability index in the data set on Saccharomyces cerevisiae [1] came to 0.0777; in the data set with Saccharomyces cerevisiae [5], 0.605.

As for RLIQPLGVQFLN, the protein stability index is 0.0859 in the data set with Saccharomyces cerevisiae [1] and 0.66 with Saccharomyces cerevisiae [5].

Regarding RLIQPLPCQFLN, the figures for the protein stability index in the data set on Saccharomyces cerevisiae [1] and in the data set on Saccharomyces cerevisiae [5] were 0.0496 and 0.587, respectively.

On to RLIQPLPVEFLN, for which the protein stability index with Saccharomyces cerevisiae [1] stood at 0.0996; in the data set on Saccharomyces cerevisiae [5], 0.586.

In the case of RLIQPLPVQALN, the protein stability index in the data set with Saccharomyces cerevisiae [1] turned out to be 0.36; in the data set with Saccharomyces cerevisiae [5] it was 0.569.

Turning to RLIQPLPVQDLN, the protein stability index in the data set with Saccharomyces cerevisiae [1] was found to be 0.6; in the data set with Saccharomyces cerevisiae [5], 0.576.

On to RLIQPLPVQFCN, for which the protein stability index with Saccharomyces cerevisiae [1] came out at 0.195; with Saccharomyces cerevisiae [5], 0.681.

As for RLIQPLPVQFFN, the protein stability index in the data set on Saccharomyces cerevisiae [1] turned out to be 0.0467; in the data set with Saccharomyces cerevisiae [5], 0.563.

In the case of RLIQPLPVQFLD, the results for the protein stability index in the data set with Saccharomyces cerevisiae [1] and with Saccharomyces cerevisiae [5] were 0.633 and 0.573, respectively.

Turning to RLIQPLPVQFLNR, the protein stability index with Saccharomyces cerevisiae [1] stood at 0.659; with Saccharomyces cerevisiae [5] it was 0.669.

Regarding RLIQPLPVQFLQ, the protein stability index in the data set with Saccharomyces cerevisiae [1] came out at 0.447; in the data set with Saccharomyces cerevisiae [5], 0.647.

Turning to RLIQPLPVQFNN, the protein stability index in the data set on Saccharomyces cerevisiae [1] turned out to be 0.554; with Saccharomyces cerevisiae [5], 0.6.

For the sequence RLIQPLPVQVLN, the values for the protein stability index with Saccharomyces cerevisiae [1] and with Saccharomyces cerevisiae [5] were 0.204 and 0.46, respectively.

On to RLIQPLPVQYLN, for which the protein stability index is 0.0462 with Saccharomyces cerevisiae [1] and 0.661 with Saccharomyces cerevisiae [5].

For RLIQPLPVSFLN, the protein stability index stood at 0.262 in the data set with Saccharomyces cerevisiae [1] and 0.593 in the data set with Saccharomyces cerevisiae [5].

For the sequence RLIQPSPVQFLN, the protein stability index in the data set with Saccharomyces cerevisiae [1] was determined as 0.0855; with Saccharomyces cerevisiae [5], 0.683.

RLIQQLPVQFLN: the protein stability index in the data set on Saccharomyces cerevisiae [1] was 0.0315; with Saccharomyces cerevisiae [5], 0.602.

As for RLIRPLPVQFLN, the protein stability index is 0.0343 in the data set with Saccharomyces cerevisiae [1] and 0.593 with Saccharomyces cerevisiae [5].

As to RLQQPLPVQFLN, the protein stability index in the data set with Saccharomyces cerevisiae [1] came to 0.0653; in the data set with Saccharomyces cerevisiae [5], 0.574.

For the sequence RLYQPLPVQFLN, the protein stability index came to 0.068 with Saccharomyces cerevisiae [1] and 0.586 with Saccharomyces cerevisiae [5].

VRGACGGWRLVG: the values for the protein stability index with Saccharomyces cerevisiae [1] and in the data set on Saccharomyces cerevisiae [5] were 0.143 and 0.677, respectively.

Take VRGAGGGWRLVG: the results for the protein stability index with Saccharomyces cerevisiae [1] and in the data set with Saccharomyces cerevisiae [5] were 0.209 and 0.663, respectively.

Regarding VRGARGGWRLVG, the protein stability index in the data set on Saccharomyces cerevisiae [1] stood at 0.273; with Saccharomyces cerevisiae [5], 0.686.

Take VRGAVEGWRLVG: the values for the protein stability index in the data set with Saccharomyces cerevisiae [1] and with Saccharomyces cerevisiae [5] were 0.19 and 0.692, respectively.

For the sequence VRGAVFGWRLVG, the protein stability index in the data set with Saccharomyces cerevisiae [1] came to 0.149; in the data set on Saccharomyces cerevisiae [5], 0.678.

For VRGAVGFWRLVG, the values for the protein stability index in the data set on Saccharomyces cerevisiae [1] and in the data set on Saccharomyces cerevisiae [5] were 0.16 and 0.687, respectively.

Take VRGAVGGHRLVG: the values for the protein stability index in the data set on Saccharomyces cerevisiae [1] and with Saccharomyces cerevisiae [5] were 0.675 and 0.703, respectively.

In the case of VRGAVGGWLLVG, the protein stability index in the data set with Saccharomyces cerevisiae [1] amounted to 0.156; with Saccharomyces cerevisiae [5], 0.668.

For VRGAVGGWRAVG, the protein stability index was 0.365 with Saccharomyces cerevisiae [1] and 0.67 in the data set with Saccharomyces cerevisiae [5].

For VRGAVGGWRLAG, the figures for the protein stability index in the data set on Saccharomyces cerevisiae [1] and in the data set on Saccharomyces cerevisiae [5] were 0.233 and 0.695, respectively.

With VRGAVGGWRLHG, the protein stability index in the data set on Saccharomyces cerevisiae [1] turned out to be 0.226; with Saccharomyces cerevisiae [5], 0.662.

Regarding VRGAVGGWRLPG, the figures for the protein stability index with Saccharomyces cerevisiae [1] and with Saccharomyces cerevisiae [5] were 0.683 and 0.681, respectively.

On to VRGAVGGWRLVG, for which the protein stability index in the data set with Saccharomyces cerevisiae [3] turned out to be 0.228 ± 0.082; in the data set on Saccharomyces cerevisiae [4] (setting [6]) it was 0.572 ± 0.059; in the data set on Saccharomyces cerevisiae [4] (setting [7]) it was 0.754 ± 0.032; in the data set on Saccharomyces cerevisiae [4] (setting [8]), 0.629 ± 0.013; in the data set on Saccharomyces cerevisiae [4] (setting [9]), 0.764 ± 0.016; with Saccharomyces cerevisiae [4] (setting [10]), 0.116 ± 0.028. The protein stability index is 0.131 ± 0.028 with Saccharomyces cerevisiae [4] (setting [11]), 0.23 ± 0.0039 in the data set with Saccharomyces cerevisiae [4] (setting [12]), 0.161 with Saccharomyces cerevisiae [1] and 0.681 in the data set with Saccharomyces cerevisiae [5].

Regarding VRGAVGGWRLVGT, the protein stability index worked out at 0.678 in the data set on Saccharomyces cerevisiae [1] and 0.689 in the data set on Saccharomyces cerevisiae [5].

Regarding VRGAVGGWRLVR, the protein stability index is 0.651 in the data set on Saccharomyces cerevisiae [1] and 0.682 in the data set on Saccharomyces cerevisiae [5].

In the case of VRGAVGGWRLYG, the protein stability index in the data set with Saccharomyces cerevisiae [1] is 0.239; in the data set on Saccharomyces cerevisiae [5] it was 0.686.

Turning to VRGAVGWWRLVG, the figures for the protein stability index in the data set on Saccharomyces cerevisiae [1] and in the data set on Saccharomyces cerevisiae [5] were 0.163 and 0.665, respectively.

VRGAVGYWRLVG: the protein stability index in the data set on Saccharomyces cerevisiae [1] was 0.152; with Saccharomyces cerevisiae [5], 0.668.

Turning to VRGAVNGWRLVG, the protein stability index in the data set on Saccharomyces cerevisiae [1] is 0.157; in the data set on Saccharomyces cerevisiae [5], 0.694.

For VRGAVRGWRLVG, the protein stability index was determined as 0.146 with Saccharomyces cerevisiae [1] and 0.7 with Saccharomyces cerevisiae [5].

Regarding VRGAVYGWRLVG, the results for the protein stability index with Saccharomyces cerevisiae [1] and in the data set with Saccharomyces cerevisiae [5] were 0.141 and 0.666, respectively.

On to VRGRVGGWRLVG, for which the protein stability index in the data set on Saccharomyces cerevisiae [1] is 0.121; in the data set with Saccharomyces cerevisiae [5], 0.675.

For VRIAVGGWRLVG, the protein stability index with Saccharomyces cerevisiae [1] stood at 0.11; in the data set on Saccharomyces cerevisiae [5] it was 0.68.

For the sequence VRWRVGLWRGAS, the protein stability index in the data set with Saccharomyces cerevisiae [1] is 0.209; in the data set with Saccharomyces cerevisiae [5] it was 0.648.

For VSMRWTFRYWVN, the protein stability index with Saccharomyces cerevisiae [1] worked out at 0.0543; in the data set with Saccharomyces cerevisiae [5], 0.509.

Regarding WKILRQKMNHQN, the protein stability index in the data set on Saccharomyces cerevisiae [1] turned out to be 0.244; in the data set on Saccharomyces cerevisiae [5], 0.678.

Consider YRGAVGGWRLVG, for which the protein stability index in the data set on Saccharomyces cerevisiae [1] worked out at 0.218; in the data set with Saccharomyces cerevisiae [5], 0.664.
